Results as given in patent US8748480B2, “Methods for treating opioid tolerance” (priority 2005, dated 2014).
pIC50: −log10 of the molar value.

Assays:
[1] = target: T1, Gβγ (protein interaction site of Gβ) (Rattus norvegicus, UniProt P54311); experiment: Phage ELISA: small molecules competing with SIGK-phage binding to immobilized biotinylated Gβγ; details: read-out: IC50
T1 construct: made in house; host or cells: Sf9 insect cells (baculovirus), co-expressed with BirA and (His)6-Gαi1
Description: Exemplary compounds of the present invention were initially selected from a computational screen to identify ligands that bind to the novel protein interaction site of Gβ. The computational screen involved using SYBYL molecular modeling software to model the protein interaction site of Gβ as determined in the X-ray structure disclosed herein. The computational docking screen was performed with the National Cancer Institute 1900 compound library wherein the compounds were tested for docking to the protein interaction site of Gβ using FLEXX™ (Tripos, Inc., St. Louis, Mo.) for docking and CSCORE™ (Tripos, Inc.) to evaluate the energetics and fitness of the docked structure. Algorithm-dependent lists of compounds, predicted to interact with the protein interaction site of Gβ and the structural model of the interaction, were generated. Selected compounds were subsequently analyzed in the phage ELISA binding assay disclosed herein to assess whether these compounds could bind to the protein interaction site of Gβ and interfere with protein interactions at this surface.
(§1) Wild-type Gβ1 and Gβ1 mutants were made in the baculovirus vector PDW464 which encodes a biotinylation site at a lysine upstream of the amino terminus of Gβ1 (Goubaeva, et al. (2003) supra). Mutants were generated by overlap extension PCR using standard protocols. The wild-type and mutant Gβ1 constructs consisted of a 20 amino acid biotin acceptor peptide (BAP) sequence fused in-frame with the amino-terminus of rat Gβ1 subunit. When coexpressed with biotin holoenzyme synthetase (BirA) in Sf9 cells, the Gβ1 subunit becomes covalently biotinylated in vivo at the Specific lysine acceptor residue in the BAP.
(§2) Phage ELISA assays used to assess peptide binding to wild-type and mutant b-βγ were performed according to standard methods (Smrcka and Scott (2002) Methods Enzymol. 344:557-76). Briefly, 1 μg streptavidin was immobilized in the well of a […] overnight at 4° C. The wells were blocked with 100 μL of 2% bovine serum albumin (BSA) in Tris-buffered saline (TBS) for 1 hour at 4° C. followed by three washes of 1×TBS/0.5% TWEEN®. […] The wells were washed, followed by the addition of 1×10^6 to 1×10^10 phage particles and incubated at 4° C. for 3 hours. The wells were then washed six times with TBS/0.5% TWEEN® followed by addition of 40 μL of 1:5000 dilution of anti-M13 antibody (Pharmacia, Uppsala, Sweden) and incubated at room temperature for 1 hour. The wells were washed, followed by the addition of 40 μL of (2,2′-Azino-bis(3-ethylbenzthiazoline)-6-sulfonic acid (ABTS) and the colorimetric reaction was monitored at 405 nm. Non-specific binding was subtracted for each reading.
A phage ELISA assay was used to determine whether small molecules identified in the computational screen could interact with the Gβγ protein interaction surface. […] The screen was based on a reduction in the optical density (OD) of wells containing Gβγ subunits and phage. […] Three background wells contained no βγ subunits.
As disclosed herein, biotinylated Gβγ subunits were immobilized on the surface of a 96-well plate coated with streptavidin, phage displaying Gβγ-binding peptides were subsequently added and binding in the presence and absence of test compounds detected with an anti-phage antibody.

Gβ1γ2 Asp186Ala = target: T2, Gβ1γ2 Asp186Ala (Rattus norvegicus, UniProt P54311, D186A); experiment: Phage ELISA, b-βγ mutant Asp186Ala; format: binding; details: alanine-substituted Asp186, N-Terminal Interface; mean ± SD
T2 construct: made in house; host or cells: Sf9 insect cells (baculovirus)
Description: as §1, with “BAP. Using this approach, 1-2 mg protein of purified protein can be obtained per liter of Sf9 insect cells. As 45 ng of protein is used in the phage ELISA assay, a single purification is sufficient for 10,000 to 30,000 binding assays.” for “BAP.”
(§3) Phage ELISA assays used to assess peptide binding to wild-type and mutant b-βγ were performed according to standard methods (Smrcka and Scott (2002) Methods Enzymol. 344:557-76). Briefly, 1 μg streptavidin was immobilized in the well of a […] overnight at 4° C. The wells were blocked with 100 μL of 2% bovine serum albumin (BSA) in Tris-buffered saline (TBS) for 1 hour at 4° C. followed by three washes of 1×TBS/0.5% TWEEN®. Forty μL of 25 nM bGβ1γ2 in TBS/0.5% TWEEN® was added to each well and incubated at 4° C. for 1.5 hour. The wells were washed, followed by the addition of 1×10^6 to 1×10^10 phage particles and incubated at 4° C. for 3 hours. The wells were then washed six times with TBS/0.5% TWEEN® followed by addition of 40 μL of 1:5000 dilution of anti-M13 antibody (Pharmacia, Uppsala, Sweden) and incubated at room temperature for 1 hour. The wells were washed, followed by the addition of 40 μL of (2,2′-Azino-bis(3-ethylbenzthiazoline)-6-sulfonic acid (ABTS) and the colorimetric reaction was monitored at 405 nm. Non-specific binding was subtracted for each reading.
(§4) Both assays were then carried out with Gβ1γ2 heterodimers containing mutations in the Gβ1 subunit.
(§5) The nine peptides were selected to represent the different consensus groups of peptides previously identified (See Scott et al. (2001) supra; Table 9) and to compare binding characteristics within and between consensus groups. […] As disclosed herein, the binding signal obtained in the ELISA assay was correlated to a loss in affinity by comparing the results to behavior of the peptide in a solution based assay. […] For the purposes of present disclosure, any substitution that decreased the binding to less than 20% of the wild-type binding was considered to be a critical binding contact for that peptide.

Gβ1γ2 Asn230Ala = target: T3, Gβ1γ2 Asn230Ala (Rattus norvegicus, UniProt P54311, N230A); experiment: Phage ELISA, b-βγ mutant Asn230Ala; format: binding; details: alanine-substituted Asn230, N-Terminal Interface; mean ± SD
T3 construct: made in house; host or cells: Sf9 insect cells (baculovirus)
Description: as §1, with “BAP. Using this approach, 1-2 mg protein of purified protein can be obtained per liter of Sf9 insect cells. As 45 ng of protein is used in the phage ELISA assay, a single purification is sufficient for 10,000 to 30,000 binding assays.” for “BAP.”
as §3, §4, §5

Gβ1γ2 Tyr59Ala = target: T4, Gβ1γ2 Tyr59Ala (Rattus norvegicus, UniProt P54311, Y59A); experiment: Phage ELISA, b-βγ mutant Tyr59Ala; format: binding; details: alanine-substituted Tyr59, C-Terminal Interface; mean ± SD
T4 construct: made in house; host or cells: Sf9 insect cells (baculovirus)
Description: as §1, §2, §4
The nine peptides were selected to represent the different consensus groups of peptides previously identified (See Scott et al. (2001) supra; Table 9) and to compare binding characteristics within and between consensus groups. […] For the purposes of present disclosure, any substitution that decreased the binding to less than 20% of the wild-type binding was considered to be a critical binding contact for that peptide.

Gβ1γ2 Lys57Ala = target: T5, Gβ1γ2 Lys57Ala (Rattus norvegicus, UniProt P54311, K57A); experiment: Phage ELISA, b-βγ mutant Lys57Ala; format: binding; details: alanine-substituted Lys57, C-Terminal Interface; mean ± SD
T5 construct: made in house; host or cells: Sf9 insect cells (baculovirus)
Description: as §1, with “BAP. Using this approach, 1-2 mg protein of purified protein can be obtained per liter of Sf9 insect cells. As 45 ng of protein is used in the phage ELISA assay, a single purification is sufficient for 10,000 to 30,000 binding assays.” for “BAP.”
as §3, §4, §5

Gβ1γ2 Leu117Ala = target: T6, Gβ1γ2 Leu117Ala (Rattus norvegicus, UniProt P54311, L117A); experiment: Phage ELISA, b-βγ mutant Leu117Ala; format: binding; details: alanine-substituted Leu117, C-Terminal Interface; mean ± SD
T6 construct: made in house; host or cells: Sf9 insect cells (baculovirus)
Description: as §1, with “BAP. Using this approach, 1-2 mg protein of purified protein can be obtained per liter of Sf9 insect cells. As 45 ng of protein is used in the phage ELISA assay, a single purification is sufficient for 10,000 to 30,000 binding assays.” for “BAP.”
as §3, §4, §5

Gβ1γ2 Trp332Ala = target: T7, Gβ1γ2 Trp332Ala (Rattus norvegicus, UniProt P54311, W332A); experiment: Phage ELISA, b-βγ mutant Trp332Ala; format: binding; details: alanine-substituted Trp332, C-Terminal Interface; mean ± SD
T7 construct: made in house; host or cells: Sf9 insect cells (baculovirus)
Description: as §1, with “BAP. Using this approach, 1-2 mg protein of purified protein can be obtained per liter of Sf9 insect cells. As 45 ng of protein is used in the phage ELISA assay, a single purification is sufficient for 10,000 to 30,000 binding assays.” for “BAP.”
as §3, §4, §5

Gβ1γ2 His311Ala = target: T8, Gβ1γ2 His311Ala (Rattus norvegicus, UniProt P54311, H311A); experiment: Phage ELISA, b-βγ mutant His311Ala; format: binding; details: alanine-substituted His311, Indirect; mean ± SD
T8 construct: made in house; host or cells: Sf9 insect cells (baculovirus)
Description: as §1, with “BAP. Using this approach, 1-2 mg protein of purified protein can be obtained per liter of Sf9 insect cells. As 45 ng of protein is used in the phage ELISA assay, a single purification is sufficient for 10,000 to 30,000 binding assays.” for “BAP.”
as §3, §4, §5

Gβ1γ2 Tyr145Ala = target: T9, Gβ1γ2 Tyr145Ala (Rattus norvegicus, UniProt P54311, Y145A); experiment: Phage ELISA, b-βγ mutant Tyr145Ala; format: binding; details: alanine-substituted Tyr145, N-Terminal Interface; mean ± SD
T9 construct: made in house; host or cells: Sf9 insect cells (baculovirus)
Description: as §1, with “BAP. Using this approach, 1-2 mg protein of purified protein can be obtained per liter of Sf9 insect cells. As 45 ng of protein is used in the phage ELISA assay, a single purification is sufficient for 10,000 to 30,000 binding assays.” for “BAP.”
as §3, §4, §5

Gβ1γ2 Asp246Ser = target: T10, Gβ1γ2 Asp246Ser (Rattus norvegicus, UniProt P54311, D246S); experiment: Phage ELISA, b-βγ mutant Asp246Ser; format: binding; details: Asp246 mutant (Asp246Ser), N-Terminal Interface; mean ± SD
T10 construct: made in house; host or cells: Sf9 insect cells (baculovirus)
Description: as §1, with “BAP. Using this approach, 1-2 mg protein of purified protein can be obtained per liter of Sf9 insect cells. As 45 ng of protein is used in the phage ELISA assay, a single purification is sufficient for 10,000 to 30,000 binding assays.” for “BAP.”
as §3, §4, §5

Gβ1γ2 Arg314Ala = target: T11, Gβ1γ2 Arg314Ala (Rattus norvegicus, UniProt P54311, R314A); experiment: Phage ELISA, b-βγ mutant Arg314Ala; format: binding; details: alanine-substituted Arg314, Indirect; mean ± SD
T11 construct: made in house; host or cells: Sf9 insect cells (baculovirus)
Description: as §1, with “BAP. Using this approach, 1-2 mg protein of purified protein can be obtained per liter of Sf9 insect cells. As 45 ng of protein is used in the phage ELISA assay, a single purification is sufficient for 10,000 to 30,000 binding assays.” for “BAP.”
as §3, §4, §5

Gβ1γ2 Met101Ala = target: T12, Gβ1γ2 Met101Ala (Rattus norvegicus, UniProt P54311, M101A); experiment: Phage ELISA, b-βγ mutant Met101Ala; format: binding; details: alanine-substituted Met101, C-Terminal Interface; mean ± SD
T12 construct: made in house; host or cells: Sf9 insect cells (baculovirus)
Description: as §1, with “BAP. Using this approach, 1-2 mg protein of purified protein can be obtained per liter of Sf9 insect cells. As 45 ng of protein is used in the phage ELISA assay, a single purification is sufficient for 10,000 to 30,000 binding assays.” for “BAP.”
as §3, §4, §5

Gβ1γ2 Met188Ala = target: T13, Gβ1γ2 Met188Ala (Rattus norvegicus, UniProt P54311, M188A); experiment: Phage ELISA, b-βγ mutant Met188Ala; format: binding; details: alanine-substituted Met188, Shared; mean ± SD
T13 construct: made in house; host or cells: Sf9 insect cells (baculovirus)
Description: as §1, with “BAP. Using this approach, 1-2 mg protein of purified protein can be obtained per liter of Sf9 insect cells. As 45 ng of protein is used in the phage ELISA assay, a single purification is sufficient for 10,000 to 30,000 binding assays.” for “BAP.”
as §3, §4, §5

Gβ1γ2 Trp99Ala = target: T14, Gβ1γ2 Trp99Ala (Rattus norvegicus, UniProt P54311, W99A); experiment: Phage ELISA, b-βγ mutant Trp99Ala; format: binding; details: alanine-substituted Trp99, C-Terminal Interface; mean ± SD
T14 construct: made in house; host or cells: Sf9 insect cells (baculovirus)
Description: as §1, with “BAP. Using this approach, 1-2 mg protein of purified protein can be obtained per liter of Sf9 insect cells. As 45 ng of protein is used in the phage ELISA assay, a single purification is sufficient for 10,000 to 30,000 binding assays.” for “BAP.”
as §3, §4, §5

## Nc1c(S(=O)(=O)O)cc(Nc2cccc(S(N)(=O)=O)c2)c2c1C(=O)c1ccccc1C2=O [NSC117079]
[1]
  pIC50: 4.37

## WCPPKLEQWYDGCA [C2]
Gβ1γ2 Asp186Ala
  % of Wild-Type Signal, Asp186: 267.2 ± 40.6%
Gβ1γ2 Asn230Ala
  % of Wild-Type Signal, Asn230: 0.0 ± 3.3%
Gβ1γ2 Tyr59Ala
  % of Wild-Type Signal, Tyr59: −1.7 ± 4.8%
Gβ1γ2 Lys57Ala
  % of Wild-Type Signal, Lys57: −1.2 ± 4.5%
Gβ1γ2 Leu117Ala
  % of Wild-Type Signal, Leu117: 1.5 ± 5.5%
Gβ1γ2 Trp332Ala
  % of Wild-Type Signal, Trp332: 4.7 ± 6.2%
Gβ1γ2 His311Ala
  % of Wild-Type Signal, His311: 11.7 ± 8.0%
Gβ1γ2 Tyr145Ala
  % of Wild-Type Signal, Tyr145: 4.5 ± 8.1%
Gβ1γ2 Asp246Ser
  % of Wild-Type Signal, Asp246: 5.9 ± 5.7%
Gβ1γ2 Arg314Ala
  % of Wild-Type Signal, Arg314: 1.3 ± 3.1%
Gβ1γ2 Met101Ala
  % of Wild-Type Signal, Met101: 157.1 ± 51.5%
Gβ1γ2 Met188Ala
  % of Wild-Type Signal, Met188: −0.7 ± 2.5%
Gβ1γ2 Trp99Ala
  % of Wild-Type Signal, Trp99: −1.0 ± 5.1%
